# Square brackets hold non-standard residues; d marks the D form. Ends that are not written are not given here. Hyp = O=C(O)[C@@H]1C[C@@H](O)CN1
# B1: Tracheary Element Differentiation Inhibitory Factor (TDIF) peptide (peptide)
# peptide: HEV[Hyp]SG[Hyp]NPISN
# notes: TDIF, the 12-residue CLE peptide processed from CLE41 and CLE44 of A. thaliana; printed as HEV(Hyp)SG(Hyp)NPISN; numbers count on: the 12-residue peptide; CLE44 encodes the same peptide; also called wild type TDIF; wtTDIF; source: synthetic peptide (peptide 2.0)
# How the values were obtained:
# Assay in all cases: ITC
# [1] = molecular target: T1, ecdTDR F281 alanine mutant (Arabidopsis thaliana, UniProt Q9FII5 30-642, alanine substitution of F281)
# T1 sequence: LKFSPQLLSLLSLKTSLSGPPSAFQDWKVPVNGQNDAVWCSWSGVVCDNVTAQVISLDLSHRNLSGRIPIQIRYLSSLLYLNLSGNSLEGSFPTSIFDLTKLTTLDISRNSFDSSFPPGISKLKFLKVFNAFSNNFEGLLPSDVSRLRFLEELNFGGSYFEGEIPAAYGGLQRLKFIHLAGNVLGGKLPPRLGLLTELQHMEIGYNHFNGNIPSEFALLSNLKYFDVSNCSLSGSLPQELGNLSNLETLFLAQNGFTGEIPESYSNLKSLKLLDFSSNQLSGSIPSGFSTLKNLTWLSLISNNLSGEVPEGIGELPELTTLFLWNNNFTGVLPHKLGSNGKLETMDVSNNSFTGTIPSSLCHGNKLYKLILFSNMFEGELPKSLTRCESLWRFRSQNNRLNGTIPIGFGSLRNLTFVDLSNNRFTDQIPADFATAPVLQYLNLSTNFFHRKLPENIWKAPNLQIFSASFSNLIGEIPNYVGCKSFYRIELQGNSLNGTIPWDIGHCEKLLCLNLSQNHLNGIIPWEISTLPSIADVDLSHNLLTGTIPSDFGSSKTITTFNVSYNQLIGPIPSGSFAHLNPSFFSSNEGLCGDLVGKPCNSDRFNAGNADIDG
# [2] = molecular target: T2, ecdTDR F279 alanine mutant (Arabidopsis thaliana, UniProt Q9FII5 30-642, alanine substitution of F279)
# T2 sequence: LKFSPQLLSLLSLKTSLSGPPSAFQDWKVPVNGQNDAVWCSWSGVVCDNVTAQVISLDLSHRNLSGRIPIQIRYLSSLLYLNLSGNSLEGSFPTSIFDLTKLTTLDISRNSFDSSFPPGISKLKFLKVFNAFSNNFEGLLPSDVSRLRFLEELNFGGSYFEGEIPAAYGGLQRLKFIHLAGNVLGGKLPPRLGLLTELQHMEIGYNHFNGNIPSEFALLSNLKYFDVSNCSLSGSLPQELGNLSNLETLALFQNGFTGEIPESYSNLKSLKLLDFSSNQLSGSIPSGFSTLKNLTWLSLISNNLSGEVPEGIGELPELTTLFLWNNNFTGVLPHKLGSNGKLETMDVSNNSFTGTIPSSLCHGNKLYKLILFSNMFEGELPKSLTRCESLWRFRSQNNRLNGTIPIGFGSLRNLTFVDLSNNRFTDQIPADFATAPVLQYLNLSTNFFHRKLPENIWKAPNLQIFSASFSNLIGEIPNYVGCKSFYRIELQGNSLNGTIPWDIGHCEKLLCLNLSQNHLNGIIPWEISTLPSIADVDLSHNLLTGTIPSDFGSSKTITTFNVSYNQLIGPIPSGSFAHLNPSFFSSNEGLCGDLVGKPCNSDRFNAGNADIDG
# [3] = molecular target: T3, ecdTDR W353A mutant (Arabidopsis thaliana, UniProt Q9FII5 30-642, W353A)
# T3 sequence: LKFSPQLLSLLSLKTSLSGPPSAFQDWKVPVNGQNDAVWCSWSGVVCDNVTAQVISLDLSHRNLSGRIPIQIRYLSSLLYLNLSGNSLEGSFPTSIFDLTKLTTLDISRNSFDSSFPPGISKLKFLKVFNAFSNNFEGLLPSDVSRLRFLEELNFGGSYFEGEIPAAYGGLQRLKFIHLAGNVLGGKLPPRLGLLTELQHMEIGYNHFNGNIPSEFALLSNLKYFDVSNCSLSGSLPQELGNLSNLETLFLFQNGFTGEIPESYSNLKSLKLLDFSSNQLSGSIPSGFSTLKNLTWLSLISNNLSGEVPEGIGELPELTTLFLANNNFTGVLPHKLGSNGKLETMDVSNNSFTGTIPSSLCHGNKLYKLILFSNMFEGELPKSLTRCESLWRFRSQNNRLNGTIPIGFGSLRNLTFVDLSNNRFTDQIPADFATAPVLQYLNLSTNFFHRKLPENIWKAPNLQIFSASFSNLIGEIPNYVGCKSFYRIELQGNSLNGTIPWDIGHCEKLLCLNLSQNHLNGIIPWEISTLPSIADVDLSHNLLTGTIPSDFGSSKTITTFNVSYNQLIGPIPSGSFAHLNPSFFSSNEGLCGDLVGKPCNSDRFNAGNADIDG
# [4] = molecular target: T4, ecdTDR S305A mutant (Arabidopsis thaliana, UniProt Q9FII5 30-642, S305A)
# T4 sequence: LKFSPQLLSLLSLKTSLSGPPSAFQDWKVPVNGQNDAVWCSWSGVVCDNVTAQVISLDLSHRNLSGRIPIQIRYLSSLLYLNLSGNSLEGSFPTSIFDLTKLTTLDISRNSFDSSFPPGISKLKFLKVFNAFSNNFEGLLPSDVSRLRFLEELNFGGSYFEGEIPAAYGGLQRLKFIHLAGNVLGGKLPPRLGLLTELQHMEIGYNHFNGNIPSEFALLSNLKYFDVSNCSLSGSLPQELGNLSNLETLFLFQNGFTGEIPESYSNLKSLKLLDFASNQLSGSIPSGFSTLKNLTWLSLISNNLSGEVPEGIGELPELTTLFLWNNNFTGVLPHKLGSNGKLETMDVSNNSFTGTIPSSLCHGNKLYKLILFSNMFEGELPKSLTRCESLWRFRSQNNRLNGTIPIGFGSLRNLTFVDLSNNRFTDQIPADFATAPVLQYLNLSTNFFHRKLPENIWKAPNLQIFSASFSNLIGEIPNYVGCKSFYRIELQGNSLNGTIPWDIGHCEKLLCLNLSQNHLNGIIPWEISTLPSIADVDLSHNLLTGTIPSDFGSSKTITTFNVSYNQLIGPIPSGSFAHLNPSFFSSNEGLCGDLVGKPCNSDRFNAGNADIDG
binder,measurement,setting,value
B1,Kd,[1],787 nM
same,Kd,[2],307 nM
same,Kd,[3],862 nM
same,Kd,[4],455 nM
